From patent US20030096760A1 (GlaxoSmithKline, published 2003) come the findings set out here.

[ ]: non-standard residue; d: D form.

In this test the target is T1, DET1-DET2-spacer-ek-src SH2 (human src SH2 domain fusion protein) (human).
T1 construct: In the assay it was captured on Protein-G Sepharose through MAB178.1; also called cloned human Src SH2 domain
T1 chain: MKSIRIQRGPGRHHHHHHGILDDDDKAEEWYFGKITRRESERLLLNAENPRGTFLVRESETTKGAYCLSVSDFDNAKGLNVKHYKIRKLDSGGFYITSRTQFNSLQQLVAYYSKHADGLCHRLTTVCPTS
In words: ELISA-based filter plate competition assay; SH2 fusion captured by MAB178.1, displacement of 0.1 uM biotinylated pY peptide (SEQ ID NO: 13). Background: ELISA stands for enzyme-linked immunosorbent assay.

B1: (S)-alpha-(acetylamino)-1,3-dihydro-3-hydroxy-1-oxo-5-isobenzofuranpropanamido-glutamate-glutamate-isoleucine-glutamate-amine (peptide)
peptide: Ac-[(S)‑2‑amino‑3‑(1,3-dihydro-3-hydroxy-1-oxo-isobenzofuran-5-yl)propanoic acid]EEIE-NH2
notes: Synthetic modified pentapeptide; also called Compound 1
Molecule B1 returned an IC50 of 250 nM.

As a reminder, the IC50 is the point on the concentration scale where inhibition reaches its midpoint. A higher IC50 goes with weaker potency in that assay.
